± gives the uncertainty stated by the source.
Assay: protein stability index of a GFP-peptide fusion (yeast GPS) (PSI 1-4); higher = more stable; sorted into four equal gates, so the index is relative within each strain
Summary of the method: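 The protein stability index combines read frequencies across sorting gates, each weighted by its gate number and then summed. To obtain those frequencies, a pooled yeast library of GFP fusions to tiled 17-residue yeast protein peptides, on a plasmid also expressing Cherry, was grown to mid-log phase in leucine-free medium. The cells were sorted into four equal gates by GFP/Cherry ratio before plasmid amplification by PCR and Illumina sequencing.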

| Sequence | protein stability index (doa10∆) | protein stability index (pdr5∆) | protein stability index (san1∆) | protein stability index (ubr1∆) |
| --- | --- | --- | --- | --- |
| SVFMPLIFIACNDEDKD [ECM29] | 2.99 ± 0.069 | 2.93 ± 0.058 | 2.09 ± 0.079 | 2.55 ± 0.04 |
| SGKSNFFAAIRFVLSDD [SMC3] | 3.02 ± 0.11 | 3.36 ± 0.096 | 3.38 ± 0.08 | 3.22 ± 0.052 |
| EVVQTGAKNIEITVVKP [PRE6] | 3.24 ± 0.098 | 3.3 ± 0.093 | 3.08 ± 0.052 | 3.04 ± 0.087 |
| SKQDVEALIEFIYDTEK [FAS2] | 3.23 ± 0.1 | 3.17 ± 0.083 | 3.04 ± 0.13 | 3.08 ± 0.073 |
| PTITLDDVYRPAAESKI [SNF5] | 3.13 ± 0.068 | 3.11 ± 0.071 | 3.02 ± 0.09 | 2.98 ± 0.068 |
| LSKRQKRKSAQEPELSL [SMC4] | 3.17 ± 0.11 | 3.15 ± 0.078 | 3.09 ± 0.097 | 3.4 ± 0.1 |
| LHDEYLVSMRYPEDKKT [RPN3] | 2.81 ± 0.26 |  |  |  |
| GIPTDKGPRFRKLTSQE [PRE8] | 3.14 ± 0.12 | 3.52 ± 0.18 | 3.01 ± 0.25 | 3.46 ± 0.25 |
| TRVHQLMLEDAVTEREV [MCD1] | 3.35 ± 0.22 | 2.92 ± 0.16 | 2.36 ± 0.23 | 2.89 ± 0.12 |
| NQKIPDNVIVINHKINN [SIR3] | 1.93 ± 0.06 | 2.03 ± 0.053 | 1.79 ± 0.066 | 2.14 ± 0.041 |
| ESEEAETKDIRKQIQLL [SRB4] | 2.53 ± 0.081 | 2.94 ± 0.086 | 2.5 ± 0.062 | 2.71 ± 0.075 |
| LTWLSSFSVCKIRCFRY [IRR1] | 2.07 ± 0.053 | 1.59 ± 0.054 | 1.58 ± 0.087 | 1.61 ± 0.04 |
| QQIQEQVLKCKESWDPN [YGR119C/NUP57] | 3.3 ± 0.17 |  | 3.33 ± 0.25 | 3.52 ± 0.22 |
| QQLRTWKRQISYFLKLL [SRB8] | 1.63 ± 0.049 | 2.18 ± 0.066 | 1.93 ± 0.088 | 1.91 ± 0.039 |
| QPIEKNGDKMPLKFKLG [YJR042W/NUP85] | 2.74 ± 0.064 | 2.98 ± 0.069 | 2.52 ± 0.086 | 3.08 ± 0.042 |
| ERDCVIAYGASQLLLER [RET1] | 1.18 ± 0.058 | 1.28 ± 0.057 | 1.24 ± 0.14 | 1.11 ± 0.051 |
| LEESDVEDTLHVNKRKR [YOR098C/NUP1] | 3.26 ± 0.095 | 2.89 ± 0.095 | 3.12 ± 0.074 | 2.91 ± 0.062 |
| KEYISRLWHTLKYYQDL [SNF5] | 1.47 ± 0.068 | 1.55 ± 0.06 | 1.42 ± 0.1 | 1.58 ± 0.054 |
| AGQIPTGWNAKTYGISD [FAS2] | 1.68 ± 0.14 | 1.36 ± 0.12 | 1.66 ± 0.26 | 1.23 ± 0.09 |
| NEHSTSYTFRSEKGLLS [FAS1] | 2.6 ± 0.047 | 2.36 ± 0.054 | 2.7 ± 0.042 | 2.46 ± 0.033 |
| IESALKSKLDQDSTSEN [RPN2] | 2.76 ± 0.072 | 3.04 ± 0.073 | 2.87 ± 0.076 | 2.95 ± 0.1 |
| LSIWIKNYPEYFLKVTF [IRR1] | 1.88 ± 0.056 | 1.77 ± 0.037 | 2.2 ± 0.076 | 1.8 ± 0.047 |
| EKAKSAGVQGSKVSKQQ [RPL24B] | 3.48 ± 0.14 | 3.4 ± 0.11 | 3.31 ± 0.14 |  |
| LLSDTFEVLAPKWERVF [RRI2] | 3.13 ± 0.11 | 2.48 ± 0.076 | 1.75 ± 0.091 | 2.93 ± 0.11 |
| LGGEINDNEDDDEEYDY [BRR2] | 3.5 ± 0.17 | 3.34 ± 0.081 | 3.28 ± 0.065 | 3.43 ± 0.1 |
| HKISFSGTKSEVLTYVN [YJL039C/NUP192] | 2.65 ± 0.093 | 2.49 ± 0.082 | 2.39 ± 0.11 | 2.7 ± 0.087 |
| NQNQRNVNETMSRSLAN [SMC3] | 3.11 ± 0.12 | 2.65 ± 0.12 | 3.15 ± 0.059 | 2.86 ± 0.077 |

| Sequence | protein stability index (doa10∆) | protein stability index (pdr5∆) | protein stability index (san1∆) | protein stability index (ubr1∆) |
| --- | --- | --- | --- | --- |
| FRTVKEMVKDRGYFITQ [RPB5] | 2.52 ± 0.069 | 2.08 ± 0.071 | 1.72 ± 0.065 | 2.08 ± 0.041 |
| AVYFADTSGLKISNSEF [SIN4] | 2.96 ± 0.072 | 3.32 ± 0.08 | 3.1 ± 0.049 | 3.18 ± 0.063 |
| PYNLNLFPNELYNVMGI [RPC31] | 2.12 ± 0.061 | 2.52 ± 0.092 | 2.71 ± 0.086 | 2.38 ± 0.12 |
| TFEIPQAHEIVIPSYSK [SWI3] | 2.43 ± 0.095 | 2.37 ± 0.07 | 2.39 ± 0.065 | 2.36 ± 0.064 |
| EQDALFITRLAQGLLHL [RPN1] | 2.88 ± 0.1 | 2.69 ± 0.12 | 2.38 ± 0.14 | 2.29 ± 0.14 |
| DPSMDPELAMALRLSME [RPN10] | 2.98 ± 0.062 | 3.18 ± 0.05 | 3.28 ± 0.068 | 2.96 ± 0.054 |
| SKLLYDDVTCDKLSVSE [SIN4] | 3.08 ± 0.07 | 3.02 ± 0.053 | 2.86 ± 0.051 | 3.23 ± 0.043 |
| TIEVLDEVITEGQADID [POP7] | 2.94 ± 0.064 | 3.1 ± 0.061 | 3.06 ± 0.072 | 3.07 ± 0.049 |
| PGSSITETEVEREQPQE [SRB4] | 3.09 ± 0.093 | 3.38 ± 0.12 | 3.07 ± 0.075 | 3.35 ± 0.078 |
| LSKIKFPESIWKDFTVE [YCG1] | 2.59 ± 0.049 | 1.89 ± 0.04 | 1.87 ± 0.06 | 2 ± 0.03 |
| CVAAWGVCNHAFHLHCI [HRT1] | 1.69 ± 0.05 | 1.75 ± 0.065 | 1.52 ± 0.076 | 2.28 ± 0.045 |
| KMKIQETISKLNEYKRE [SMC2] | 1.3 ± 0.065 | 1.48 ± 0.051 | 2.35 ± 0.084 | 1.93 ± 0.036 |
| MAHFKEYQVIGRRLPTE [RPL20A] | 2.21 ± 0.071 | 2.07 ± 0.061 | 1.4 ± 0.1 | 2.4 ± 0.047 |
| DGAYALSASWDKTLRLW [ASC1] | 3.28 ± 0.064 | 3.28 ± 0.057 | 3.18 ± 0.093 | 3.26 ± 0.036 |
| YDKKKRVVVPQALRVLR [RPL16B] | 1.82 ± 0.043 | 2.09 ± 0.059 | 2.17 ± 0.084 | 1.82 ± 0.059 |
| IPVNKRRGAHGSELSSK [SIR3] | 3 ± 0.15 | 3.03 ± 0.15 | 3.11 ± 0.22 | 2.96 ± 0.19 |
| SVVLTLQAFGESESTTN [RPB3] | 2.42 ± 0.12 | 2.51 ± 0.088 | 1.67 ± 0.11 | 1.18 ± 0.052 |
| PFHSHLLVPASDLINKD [FAS1] | 1.83 ± 0.03 | 2.15 ± 0.035 | 2.13 ± 0.048 | 1.96 ± 0.032 |
| IGQAVQPKRNLSRYVKW [RPL8A] | 2.69 ± 0.065 | 2.97 ± 0.043 | 2.72 ± 0.047 | 2.66 ± 0.047 |
| AGAAGAAAGGDAAEEEK [RPP2B] |  |  |  | 1.27 ± 0.27 |
| LHKEQWQSGLKMYDYEE [RPN11] | 2.47 ± 0.081 | 2.8 ± 0.081 | 2.28 ± 0.096 | 2.39 ± 0.053 |
| YGKPTNQGVNELKYQRS [RPL15A] | 2.9 ± 0.16 | 3.23 ± 0.17 | 2.59 ± 0.14 | 3.03 ± 0.087 |
| IDVTFTKVNNQLIKVAV [RPL9A] | 2.23 ± 0.068 | 1.87 ± 0.048 | 1.75 ± 0.087 | 2.44 ± 0.036 |
| CEISGSIEQLRNVVEDI [BRN1] | 3.25 ± 0.18 | 3.33 ± 0.2 | 3.09 ± 0.19 |  |
| IALMGQDNKKIYVHVRR [ESC2] | 2.33 ± 0.081 | 2.57 ± 0.12 | 2.47 ± 0.17 | 2.53 ± 0.068 |
| ALKGPVRDKLDEYQAAV [DPB4] | 3.31 ± 0.072 | 3.29 ± 0.05 | 3.2 ± 0.052 | 3.17 ± 0.064 |
| QLLIIEKEWENAIRIGE [SRP72] | 1.44 ± 0.052 | 1.69 ± 0.054 | 2.09 ± 0.12 | 2.21 ± 0.044 |
